Data published in patent publication US20110281938, “APTAMERS TO TISSUE FACTOR PATHWAY INHIBITOR AND THEIR USE AS BLEEDING DISORDER THERAPEUTICS” (Baxter Healthcare S.A., published 2011).

These binders were tested against T1, TFPI (tissue factor pathway inhibitor, full-length) (Homo sapiens, UniProt P10646 SEQ:1-276) (assay: competition; meets binding-competition criterion; CAT no). Conditions: tags: American Diagnostica 4500PC/4900PC, E. coli expressed.
T1 sequence (P10646 29-304): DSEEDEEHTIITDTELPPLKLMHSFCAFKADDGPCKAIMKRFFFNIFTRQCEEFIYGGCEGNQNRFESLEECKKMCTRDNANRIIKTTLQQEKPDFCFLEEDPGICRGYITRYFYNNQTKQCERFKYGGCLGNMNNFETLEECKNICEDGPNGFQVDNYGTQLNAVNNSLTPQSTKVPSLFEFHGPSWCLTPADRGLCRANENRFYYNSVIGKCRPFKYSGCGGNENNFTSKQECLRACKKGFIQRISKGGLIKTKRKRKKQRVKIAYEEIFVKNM
Procedure: Each molecule was evaluated for binding to tissue factor pathway inhibitor (TFPI) in a binding-competition assay. For these experiments, 10 nM human TFPI (American Diagnostica, Stamford, Conn., catalog #4500PC) was incubated with trace amounts of radiolabeled ARC17480 and 5000 nM, 1666.67 nM, 555.56 nM, 185.19 nM, 61.73 nM, 20.58 nM, 6.86 nM, 2.29 nM, 0.76 nM or 0.25 nM of unlabeled competitor aptamer. ARC17480 was included as a competitor in every experiment as a control. For each molecule, the percentage of radiolabeled ARC17480 bound at each competitor aptamer concentration was used for analysis. The percentage of radiolabeled ARC17480 bound was plotted as a function of aptamer concentration and fit to the equation y=(max/(1+x/IC₅₀))+int, where y=the percentage of radiolabeled ARC17480 bound, x=the concentration of aptamer, max=the maximum radiolabeled ARC17480 bound, and int=the y-intercept, to generate an IC₅₀ value for binding-competition. The IC₅₀ of each aptamer was compared to the IC₅₀ of ARC17480 that was evaluated in the same experiment. A substitution was considered tolerated in the binding-competition assay if the IC₅₀ of that molecule was not more than 5-fold greater than that of ARC17480 evaluated in the same experiment. Tolerated substitutions are indicated in Table 38 as meeting the assay criteria (“yes”) or not meeting the assay criteria (“no”).
In the case of GGAAUAUACUUGGCUCGUUAGGUGCGUAAUA (mixed, 2'-OMe A/G/U, 2'-deoxy C, 3' idT) [ARC33141], the binding signal is reported as ≤ 5 fold IC50 of ARC17480. GGAAUUACUUGGCUCGUUAGGUGCGUAUAUA (mixed, 2'-OMe A/G/U, 2'-deoxy C, 3' idT) [ARC33122] was tested, and the binding signal was ≤ 5 fold IC50 of ARC17480.

The binders below were run against T1, TFPI (tissue factor pathway inhibitor, …) (assay: competition; dot-blot). Conditions: tags: American Diagnostica 4500PC/4900PC, E. coli expressed.
Procedure: (§1) The substituted ARC17480 molecules were assayed for binding and function. The assays used for this evaluation were the calibrated automated thrombogram (CAT) assay, a dot-blot binding-competition assay and a FXa activity assay. The results of these assays are summarized in Table 40 and depicted in FIG. 147. A mutation was considered tolerated for activity if it met the criteria of at least two of the three assays that were carried out. Mutations that are tolerated (“yes”) and not tolerated (“no”) are identified in Table 40. The experimental details and the criteria used for each assay are described in the following paragraphs. The molecules described in this example were first tested in the CAT assay and the dot-blot binding-competition assay. In most cases, molecules were only tested in the FXa assay if there was a discrepancy between the results in the CAT assay and the dot-blot binding-competition assay.
(§2) Each molecule was evaluated for binding to tissue factor pathway inhibitor (TFPI) in a binding-competition assay. For these experiments, 10 nM human TFPI (American Diagnostica, Stamford, Conn., catalog #4900PC) was incubated with trace amounts of radiolabeled ARC17480 and 5000 nM, 1666.67 nM, 555.56 nM, 185.19 nM, 61.73 nM, 20.58 nM, 6.86 nM, 2.29 nM, 0.76 nM or 0.25 nM of unlabeled competitor aptamer. ARC17480 was included as a competitor in every experiment as a control. For each molecule, the percentage of radiolabeled ARC17480 bound at each competitor aptamer concentration was used for analysis. The percentage of radiolabeled ARC17480 bound was plotted as a function of aptamer concentration and fit to the equation y=(max/(1+x/IC₅₀))+int, where y=the percentage of radiolabeled ARC17480 bound, x=the concentration of aptamer, max=the maximum radiolabeled ARC17480 bound, and int=the y-intercept, to generate an IC₅₀ value for binding-competition. The IC₅₀ of each aptamer was compared to the IC₅₀ of ARC17480 that was evaluated in the same experiment. A mutation was considered tolerated in the binding-competition assay if the IC₅₀ of that molecule was not more than 5-fold greater than that of ARC17480 evaluated in the same experiment. Tolerated mutations are indicated in Table 40 as meeting the assay criteria (“yes”) or not meeting the assay criteria (“no”).
With GGAAUGUACUUGGCUCGUUAGGUGCGUAUAUA (XNA, 2'-OMe except dC9, dC14, dC16, dC25; 3' idT) [ARC34866] the binding signal was ≤ 5 fold IC50 vs ARC17480. With GGAGUAUACUUGGCUCGUUAGGUGCGUAUAUA (XNA, 2'-OMe except dC9, dC14, dC16, dC25; 3' idT) [ARC34862] the binding signal was ≤ 5 fold IC50 vs ARC17480. In the case of GGACUAUACUUGGCUCGUUAGGUGCGUAUAUA (XNA, 2'-OMe except dC9, dC14, dC16, dC25; 3' idT) [ARC34863], the binding signal is reported as ≤ 5 fold IC50 vs ARC17480. With GGGAUAUACUUGGCUCGUUAGGUGCGUAUAUA (XNA, 2'-OMe except dC9, dC14, dC16, dC25; 3' idT) [ARC34860] the binding signal was ≤ 5 fold IC50 vs ARC17480. CGAAUAUACUUGGCUCGUUAGGUGCGUAUAUA (XNA, 2'-OMe except dC9, dC14, dC16, dC25; 3' idT) [ARC34857] was tested, and the binding signal was ≤ 5 fold IC50 vs ARC17480. GAAAUAUACUUGGCUCGUUAGGUGCGUAUAUA (XNA, 2'-OMe except dC9, dC14, dC16, dC25; 3' idT) [ARC34858] was tested, and the binding signal was ≤ 5 fold IC50 vs ARC17480. With GCAAUAUACUUGGCUCGUUAGGUGCGUAUAUA (XNA, 2'-OMe except dC9, dC14, dC16, dC25; 3' idT) [ARC34859] the binding signal was ≤ 5 fold IC50 vs ARC17480. GGCAUAUACUUGGCUCGUUAGGUGCGUAUAUA (XNA, 2'-OMe except dC9, dC14, dC16, dC25; 3' idT) [ARC34861] was tested, and the binding signal was ≤ 5 fold IC50 vs ARC17480. In the case of GGAAGAUACUUGGCUCGUUAGGUGCGUAUAUA (XNA, 2'-OMe except dC9, dC14, dC16, dC25; 3' idT) [ARC34865], the binding signal is reported as ≤ 5 fold IC50 vs ARC17480.

These binders were tested against T1, TFPI (tissue factor pathway inhibitor, …) (assay: competition; dot-blot; CAT criterion not met). Conditions: tags: American Diagnostica 4500PC/4900PC, E. coli expressed.
Procedure: as §1, §2
In the case of GGAAAAUACUUGGCUCGUUAGGUGCGUAUAUA (XNA, 2'-OMe except dC9, dC14, dC16, dC25; 3' idT) [ARC34864], the binding signal is reported as ≤ 5 fold IC50 vs ARC17480. In the case of GGAAUAUGCUUGGCUCGUUAGGUGCGUAUAUA (XNA, 2'-OMe except dC9, dC14, dC16, dC25; 3' idT) [ARC34870], the binding signal is reported as ≤ 5 fold IC50 vs ARC17480. GGAAUCUACUUGGCUCGUUAGGUGCGUAUAUA (XNA, 2'-OMe except dC9, dC14, dC16, dC25; 3' idT) [ARC34867] was tested, and the binding signal was ≤ 5 fold IC50 vs ARC17480. For GGAAUAUCCUUGGCUCGUUAGGUGCGUAUAUA (XNA, 2'-OMe except dC9, dC14, dC16, dC25; 3' idT) [ARC34871], the binding signal was > 5 fold IC50 vs ARC17480.

Molecular target: T1, TFPI (tissue factor pathway inhibitor, …)
Test: competition; meets binding-competition criterion; CAT no
Conditions: tags: American Diagnostica 4500PC/4900PC, E. coli expressed
Remark: another data set of the same source
Procedure: as §1
Each molecule was evaluated for binding to tissue factor pathway inhibitor (TFPI) in a binding-competition assay. […] The IC₅₀ of each aptamer was compared to the IC₅₀ of ARC17480 that was evaluated in the same experiment. A mutation was considered tolerated in the binding-competition assay if the IC₅₀ of that molecule was not more than 5-fold greater than that of ARC17480 evaluated in the same experiment. […]
In the case of GGAAUAUACUUGGCUCGUUAGGUGCGUACAUA (mixed, 2'-OMe A/G/U and mC29, other C 2'-deoxy, 3' idT) [ARC33177], the binding signal is reported as ≤ 5 fold IC50 of ARC17480. GGAAUUUACUUGGCUCGUUAGGUGCGUAUAUA (mixed, 2'-OMe A/G/U, 2'-deoxy C, 3' idT) [ARC33154] was tested, and the binding signal was ≤ 5 fold IC50 of ARC17480.
